The values that follow are results of earlier work, collected in publication PMC7599994.

The data set concerns the target HIV-1 capsid CA CTD (Human immunodeficiency virus 1) (UniProt O93182).

“HIV-1 capsid CA CTD (from UniProt O93182)”: the Kd (as a rule, the concentration at which binding is half-saturated) is 10 µM.
